Measured values as given in paper doi:10.1101/705442.

Target: extracellular matrix proteins (ELISA of Figure S3: 'In each case')
Assay: ELISA

**Q.** Which Kd does the source give for “capillary morphogenesis gene 2 (ANTXR2/CMG2), biotinylated CMG2-AviTag construct (from UniProt P58335 34-489) (receptor)” here?
**A.** The Kd was 500 to 1000 nM.
